Laboratory results reported in publication PMC9507964, “Structure of CRL7^FBXW8 reveals coupling with CUL1–RBX1/ROC1 for multi-cullin-RING E3-catalyzed ubiquitin ligation” (Nature Structural & Molecular Biology, 2022).
Each block holds one binder with its values, some of them ahead of it.

How the values were obtained:
FBXW8 = target: T1, FBXW8 (human, UniProt Q8N3Y1 1-598); experiment: cryo-EM structure; purified CRL7^FBXW8 and CUL1 N-terminal region mixed 15 min before plunging, on ice; Glacios 200 kV; details: both partners purified
T1 construct: FBXW8, human, full length; source: HEK293S, co-expressed (BacMam), purified within CRL7^FBXW8; not shown: GFP, N-terminal, cleaved
T1 sequence (looked up): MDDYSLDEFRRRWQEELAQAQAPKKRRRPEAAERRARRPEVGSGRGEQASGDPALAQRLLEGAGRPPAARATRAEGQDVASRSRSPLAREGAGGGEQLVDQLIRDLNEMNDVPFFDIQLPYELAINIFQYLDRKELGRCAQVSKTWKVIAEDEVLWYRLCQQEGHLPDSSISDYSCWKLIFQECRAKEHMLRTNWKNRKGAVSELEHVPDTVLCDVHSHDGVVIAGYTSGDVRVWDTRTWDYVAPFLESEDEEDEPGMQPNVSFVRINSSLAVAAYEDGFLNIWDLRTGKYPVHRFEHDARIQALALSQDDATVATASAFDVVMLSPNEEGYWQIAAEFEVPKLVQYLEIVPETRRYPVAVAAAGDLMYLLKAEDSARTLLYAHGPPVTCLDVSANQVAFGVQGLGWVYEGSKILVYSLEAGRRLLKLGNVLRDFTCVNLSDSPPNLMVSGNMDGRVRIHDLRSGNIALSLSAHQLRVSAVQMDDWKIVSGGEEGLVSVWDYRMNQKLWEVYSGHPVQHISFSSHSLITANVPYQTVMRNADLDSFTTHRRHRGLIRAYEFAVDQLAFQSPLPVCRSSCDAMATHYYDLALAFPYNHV

[1] = target: T2, CUL1–RBX1 (full-length CUL1) (human, UniProt Q13616 1-776; P62877 5-108); experiment: SEC; comigration; proteins mixed at equimolar 1.5 μM for at least 10 min on ice; Superose 6 5/150GL; 50 mM Tris pH 7.5, 150 mM NaCl, 1 mM DTT; fractions on Coomassie-stained SDS–PAGE; details: both partners purified
T2 construct: CUL1, human, full length; RBX1, human, residue 5 to C terminus; Unneddylated form used in the SEC experiments; also called full-length CUL1–RBX1; not shown: GST, N-terminal, cleaved

binding result (FBXW8): binds
B1: CUL1 N-terminal region (residues 1–410) (domain or fragment)
chain: not shown
notes: CUL1, human, residues 1 to 410 encompassing the CR1, CR2 and CR3 domains; Expressed as a GST-thrombin or GST-TEV fusion; also called CUL1^NTD; N-terminal region of CUL1 (CR1, CR2 and CR3 domains)

binding result [1]: binds
B2: SKP1^ΔΔ–β-TRCP1 (monomeric form) complex (complex, human)
chain 1: MLQRDFITALPARGLDHIAENILSYLDAKSLCAAELVCKEWYRVTSDGMLWKKLIERMVRTDSLWRGLAERRGWGQYLFKNKPPDGNAPPNSFYRALYPKIIQDIETIESNWRCGRHSLQRIHCRSETSKGVYCLQYDDQKIVSGLRDNTIKIWDKNTLECKRILTGHTGSVLCLQYDERVIITGSSDSTVRVWDVNTGEMLNTLIHHCEAVLHLRFNNGMMVTCSKDRSIAVWDMASPTDITLRRVLVGHRAAVNVVDFDDKYIVSASGDRTIKVWNTSTCEFVRTLNGHKRGIACLQYRDRLVVSGSSDNTIRLWDIECGACLRVLEGHEELVRCIRFDNKRIVSGAYDGKIKVWDLVAALDPRAPAGTLCLRTLVEHSGRVFRLQFDEFQIVSSSHDDTILIWDFLNDPAAQAEPPRSPSRTYTYISR
chain 2: MPSIKLQSSDGEIFEVDVEIAKQSVTIKTMLEDLGMDPVPLPNVNAAILKKVIQWCTHHKDDPPDDIPVWDQEFLKVDQGTLFELILAANYLDIKGLLDVTCKTVANMIKGKTPEEIRKTFNIKNDFTEEEEAQVRKENQWCEEK
notes: β-TRCP1, human, monomeric form, from residue 175 to C terminus; also called SKP1-β-TRCP1; SKP-β-TRCP1; not shown: His-MBP, N-terminal, cleaved
